To fix the notation:
B1: PTR 6020 (peptide)
peptide: RPRTS[Abu]F
modifications: not fully specified (C-terminus); printed as Arg-Pro-Arg-Thr-Ser-Abu-Phe-(O-CO-N-bAla-SO2-IQ); also: -(O-CO-N-bAla-SO2-IQ) on Phe7, attachment unclear

Where no end group is shown, it is not given here. Side-chain parts run from the residue outwards. [ ]: non-standard residue; d: D form. The star is where a group is joined. O‑CO‑N‑SO2‑IQ = carbamate-linked N-sulfonyl 5-aminoethylsulfonamide isoquinoline (O-CO-N-SO2-IQ); SO2‑IQ = 5-aminoethylsulfoneamide isoquinoline, O=S(=O)(NCCN*)c1cccc2cnccc12; S‑IQ = 5-mercaptoaminopropyl isoquinoline; hLeu = CC(C)CC[C@H](N)C(=O)O; Nle = CCCC[C@H](N)C(=O)O; Orn = NCCC[C@H](N)C(=O)O; bGaba = not defined here; Dab = NCC[C@H](N)C(=O)O; Nva = CCC[C@H](N)C(=O)O; Abu = CC[C@H](N)C(=O)O; Dap = NC[C@H](N)C(=O)O; Ava = NCCCCC(=O)O; βAla = NCCC(=O)O

This test deals with protein kinase B, P31749. Kind of test: cell-based or functional assay.
protein kinase B, P31749, sequence (P31749 whole entry): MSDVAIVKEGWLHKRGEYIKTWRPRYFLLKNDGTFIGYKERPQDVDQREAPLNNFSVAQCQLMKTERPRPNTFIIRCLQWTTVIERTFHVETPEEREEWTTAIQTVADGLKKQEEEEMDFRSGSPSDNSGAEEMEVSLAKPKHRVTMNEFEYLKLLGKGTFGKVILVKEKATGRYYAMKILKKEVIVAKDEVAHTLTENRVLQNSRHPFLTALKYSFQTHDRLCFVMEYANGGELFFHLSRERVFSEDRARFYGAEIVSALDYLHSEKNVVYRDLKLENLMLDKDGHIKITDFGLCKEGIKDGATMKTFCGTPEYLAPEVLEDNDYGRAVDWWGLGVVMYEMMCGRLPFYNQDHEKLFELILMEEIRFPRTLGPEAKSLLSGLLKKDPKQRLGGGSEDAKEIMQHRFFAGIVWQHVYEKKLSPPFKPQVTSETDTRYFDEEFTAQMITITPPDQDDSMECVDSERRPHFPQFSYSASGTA
RPR[Nle]E([βAla-SO2‑IQ])S[Nle] [PTR 6096] yielded a PKB IC50 of 930 nM.

Regarding RPR[Nva]E(SO2‑IQ)A[hLeu] [PTR 6150], the PKB IC50 amounted to 25000 nM.

As for RPR[Nle]E(SO2‑IQ)SF [PTR 6128], the PKB IC50 came to 9000 nM.

In turn, RPR[Nle]E(S‑IQ)SF [PTR 6136] showed a PKB IC50 of 114 nM.

RPR[Nle]E([βAla-SO2‑IQ])[Abu]F [PTR 6138] registered a PKB IC50 of 2000 nM.

Turning to RPR[Nva]E(S‑IQ)SF [PTR 6134], the PKB IC50 was 217 nM.

As for RPR[Nle]E([βAla-SO2‑IQ])SF [PTR 6086], the PKB IC50 is 570 nM.

For the molecule RPR[Orn]E(SO2‑IQ)SF [PTR 6132], the IC50 PKB is 20 nM and the PKB IC50 amounted to 20 nM.

Consider RPRTE([Ava-SO2‑IQ])SF [PTR 6090], for which the PKB IC50 came to 5600 nM.

Turning to RPRTE(S‑IQ)SF [PTR 6104], the IC50 PKB stood at 100 nM and the PKB IC50 came to 100 nM.

With RPRTE([βAla-SO2‑IQ])SF [PTR 6082], the PKB IC50 came to 5540 nM.

The molecule RPR[Nva]E([βAla-SO2‑IQ])A[hLeu] [PTR 6152] gave a PKB IC50 of 5000 nM.

Turning to RPRT[Dap]SF (not fully specified (residue 5)) [PTR 6106], the PKB IC50 amounted to 10000 nM.

For the molecule RPR[Nle]E([βAla-SO2‑IQ])[Dab]F [PTR 6140], the PKB IC50 was found to be 413 nM.

In the case of RPRTSE(SO2‑IQ)F [PTR 6014], the Activity PKB was 25 µM and the PKB IC50 is 25000 nM.

Molecule B1 gave an Activity PKB of more than 20 µM and a PKB IC50 of 18000 nM.

In the case of RPR[Orn]E([bGaba-SO2‑IQ])SF (reading uncertain) [PTR 6088], the PKB IC50 came out at 1180 nM.

Molecule RPRTD(SO2‑IQ)SF [PTR 6130] showed a PKB IC50 of 9500 nM.

RPRTE([βAla-S‑IQ])SF [PTR 6102]: the IC50 PKB stood at 300 nM and the PKB IC50 was 300 nM.

For RPRTS[Abu]F-{O‑CO‑N‑SO2‑IQ} (not fully specified; printed as Arg-Pro-Arg-Thr-Ser-Abu-Phe-(O-CO-N-SO2-IQ)) [PTR 6013], the Activity PKB amounted to 3 µM and the PKB IC50 was 4000 nM.

RPRTE(SO2‑IQ)SF [PTR 6016]: the Activity PKB came out at 0.9 µM and the PKB IC50 came out at 1000 nM.

Source of the values: patent publication US7407939.
